Four molecules from patent US20240132563A1 (BRIGHT PEAK THERAPEUTICS, published 2024) can be followed below.

The term Kd denotes the equilibrium constant for the complex coming apart. A high value points to a looser complex. A word on the koff: it is the first-order rate constant of dissociation. The low end stands for a long-lived complex, the high end for a short-lived complex. A word on the kon: it is the second-order rate constant of association. Low readings indicate slow association, high ones fast association.

Experiment [1] addresses T1, IL-2Rβγ on HEK-Blue IL2Rβγ reporter cells (UniProt P14784 27-551; P31785 23-369).
T1 sequence (looked up) 1: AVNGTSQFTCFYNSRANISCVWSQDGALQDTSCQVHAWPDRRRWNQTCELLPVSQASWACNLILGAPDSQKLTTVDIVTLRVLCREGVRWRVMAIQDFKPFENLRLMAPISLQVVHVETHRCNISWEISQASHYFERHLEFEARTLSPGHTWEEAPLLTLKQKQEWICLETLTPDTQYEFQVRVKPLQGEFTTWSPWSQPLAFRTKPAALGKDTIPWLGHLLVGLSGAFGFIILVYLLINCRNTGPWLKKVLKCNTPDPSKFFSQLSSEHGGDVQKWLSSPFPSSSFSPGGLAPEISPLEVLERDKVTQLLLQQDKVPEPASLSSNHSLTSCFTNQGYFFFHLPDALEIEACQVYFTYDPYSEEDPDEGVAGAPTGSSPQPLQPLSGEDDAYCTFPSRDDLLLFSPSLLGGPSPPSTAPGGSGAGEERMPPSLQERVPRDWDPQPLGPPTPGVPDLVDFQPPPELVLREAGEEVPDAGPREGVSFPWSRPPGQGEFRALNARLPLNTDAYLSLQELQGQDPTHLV
T1 sequence (looked up) 2: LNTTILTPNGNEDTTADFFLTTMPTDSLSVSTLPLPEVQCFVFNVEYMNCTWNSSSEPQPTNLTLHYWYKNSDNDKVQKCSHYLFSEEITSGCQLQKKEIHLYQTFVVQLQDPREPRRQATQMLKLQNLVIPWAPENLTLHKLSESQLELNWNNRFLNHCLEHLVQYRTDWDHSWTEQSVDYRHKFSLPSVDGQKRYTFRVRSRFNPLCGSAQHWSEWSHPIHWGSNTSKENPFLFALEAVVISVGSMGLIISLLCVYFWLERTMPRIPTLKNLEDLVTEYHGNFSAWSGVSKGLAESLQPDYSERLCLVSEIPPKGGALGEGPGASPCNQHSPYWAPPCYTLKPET
As to the kind of experiment: cell-based or functional assay.

The target of experiment [2] is T2, IL-2Rβ (CD122), avi-tagged (UniProt P14784 27-239, limits assumed).
T2 construct: BLI ligand printed as 'CD122 (avi)'; also called IL-2 receptor beta subunit
T2 sequence (looked up): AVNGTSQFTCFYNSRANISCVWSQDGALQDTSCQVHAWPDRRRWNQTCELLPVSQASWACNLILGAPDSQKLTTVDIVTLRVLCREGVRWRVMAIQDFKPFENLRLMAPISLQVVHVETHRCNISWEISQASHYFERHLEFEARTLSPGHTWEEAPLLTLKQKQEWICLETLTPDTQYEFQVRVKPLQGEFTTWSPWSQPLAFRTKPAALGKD
As to the kind of experiment: BLI; ligand CD122 (avi). In general terms: In BLI a coated tip is dipped into the sample, and binding shifts an interference pattern.

For experiment [3], the target named is T3, IL-18R on HEK-Blue IL18R reporter cells (UniProt Q13478 19-541; O95256 20-599, limits assumed).
T3 sequence (looked up) 1: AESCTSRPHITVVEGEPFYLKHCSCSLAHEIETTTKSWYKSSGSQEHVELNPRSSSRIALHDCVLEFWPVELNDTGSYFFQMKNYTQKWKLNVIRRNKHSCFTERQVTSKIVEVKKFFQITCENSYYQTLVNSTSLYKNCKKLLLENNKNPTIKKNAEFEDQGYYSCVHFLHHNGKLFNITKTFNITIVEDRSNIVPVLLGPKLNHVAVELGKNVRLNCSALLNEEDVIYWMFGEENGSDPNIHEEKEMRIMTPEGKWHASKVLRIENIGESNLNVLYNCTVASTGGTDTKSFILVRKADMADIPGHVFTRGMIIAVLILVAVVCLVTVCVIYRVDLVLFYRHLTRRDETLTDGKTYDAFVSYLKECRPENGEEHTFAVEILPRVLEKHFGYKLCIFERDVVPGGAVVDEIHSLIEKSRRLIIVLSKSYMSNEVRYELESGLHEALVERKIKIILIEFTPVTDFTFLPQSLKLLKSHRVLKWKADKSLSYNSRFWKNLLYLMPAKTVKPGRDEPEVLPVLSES
T3 sequence (looked up) 2: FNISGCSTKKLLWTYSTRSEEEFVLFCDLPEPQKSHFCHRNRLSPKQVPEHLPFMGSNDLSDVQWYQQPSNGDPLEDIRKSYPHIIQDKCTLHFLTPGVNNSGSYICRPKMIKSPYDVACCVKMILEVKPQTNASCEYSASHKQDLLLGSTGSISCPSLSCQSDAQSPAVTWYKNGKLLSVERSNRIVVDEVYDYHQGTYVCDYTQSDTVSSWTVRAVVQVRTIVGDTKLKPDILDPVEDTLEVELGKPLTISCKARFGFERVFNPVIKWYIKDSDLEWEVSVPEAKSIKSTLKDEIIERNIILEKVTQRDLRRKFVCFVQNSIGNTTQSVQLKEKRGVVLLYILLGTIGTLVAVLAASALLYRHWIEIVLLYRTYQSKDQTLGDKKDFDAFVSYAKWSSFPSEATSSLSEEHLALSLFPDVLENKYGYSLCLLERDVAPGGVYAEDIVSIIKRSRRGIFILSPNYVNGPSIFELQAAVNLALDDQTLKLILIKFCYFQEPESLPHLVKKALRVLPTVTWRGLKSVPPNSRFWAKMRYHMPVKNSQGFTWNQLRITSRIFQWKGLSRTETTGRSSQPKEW
As to the kind of experiment: cell-based or functional assay.

In experiment [4] the target is T4, CD218a (IL-18 receptor alpha subunit), avi-tagged (UniProt Q13478 19-329, limits assumed).
T4 construct: BLI ligand printed as 'CD218a (avi)'; also called CD218a (avi); IL-18Rα
T4 sequence (looked up): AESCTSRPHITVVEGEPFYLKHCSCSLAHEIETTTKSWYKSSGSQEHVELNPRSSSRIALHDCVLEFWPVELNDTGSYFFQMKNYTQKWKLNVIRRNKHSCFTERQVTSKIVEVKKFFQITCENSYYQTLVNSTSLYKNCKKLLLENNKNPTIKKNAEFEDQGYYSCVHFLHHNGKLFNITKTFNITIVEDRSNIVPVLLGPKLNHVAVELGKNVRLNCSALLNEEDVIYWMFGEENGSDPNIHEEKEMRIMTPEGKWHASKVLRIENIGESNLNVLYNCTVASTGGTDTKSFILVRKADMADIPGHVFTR
As to the kind of experiment: BLI; ligand CD218a (avi).

Positions of bridges follow the written chain, without caps; N, C: chain ends. Non-standard residues stand in square brackets, D forms with d. Chains are numbered I, II in the order given. Ygp = tyrosine with amino-capped PEG8; Yn3 = tyrosine with azide-capped PEG9; hSer = N[C@@H](CCO)C(=O)O; Nle = CCCC[C@H](N)C(=O)O

B1: IL-2 polypeptide of SEQ ID NO: 300 (ligand)
chain: APTSSSTKKTQLQLEHLLLDLQ[Nle]ILNGINNYKNPKLTR[Nle]L[hSer][Yn3]KF[Ygp][Nle]PKKATELKHLQCLEEELKPLEEVL[hSer]LAQSKNFHLRPRDLISNINVIVLELKGSETTF[hSer]CEYADETATIVEFLNRWITFSQSIISTLT
modifications: ends and bridges not checked
notes: Synthetic modified IL-2
For B1, the “EC50, HEK-Blue IL2Rβγ reporter assay” value in experiment [1] was found to be 0.004 nM. In experiment [2], this molecule yielded a Kd of 206 nM, a koff of 0.102 s⁻¹ and a kon of 493000 M⁻¹ s⁻¹.

B2: Bifunctional cytokine Composition 4 (IL-18 SEQ ID NO: 30, linker 004, IL-2 SEQ ID NO: 300) (other)
chain 1: YFGKLKSKLSIIRNLNDQVLFIDQGNRPLFEDMTDSDARDNAPRTIFIISMYADSQPRGMAVAISVKCEKISTLSAENKIISFKEMNPPDNIKDTKSDIIFFQRSVPGHDNKMQFESSSYEGYFLAAEKERDLFKLILKKEDELGDRSIMFTVQNED
chain 2: APTSSSTKKTQLQLEHLLLDLQ[Nle]ILNGINNYKNPKLTR[Nle]L[hSer][Yn3]KF[Ygp][Nle]PKKATELKHLQCLEEELKPLEEVL[hSer]LAQSKNFHLRPRDLISNINVIVLELKGSETTF[hSer]CEYADETATIVEFLNRWITFSQSIISTLT
modifications: linker I:68-II:42 via linker 004 (SulfoDBCO-Maleimide) (inferred); ends not checked
notes: Two cytokines joined by a chemical (non-peptide) linker
With B2, the “EC50, HEK-Blue IL18R reporter assay” value in experiment [3] turned out to be 1.48 pM. Further, the “EC50, HEK-Blue IL2Rβγ reporter assay” value in experiment [1] turned out to be 0.05 nM. In experiment [2], this molecule registered a Kd of 148 nM, a koff of 0.0863 s⁻¹ and a kon of 585000 M⁻¹ s⁻¹. For the same molecule, in experiment [4], the Kd worked out at 66.4 nM, the koff turned out to be 0.0708 s⁻¹ and the kon was 1.07e+06 M⁻¹ s⁻¹.

B3: IL-18 polypeptide of SEQ ID NO: 30 (E6K, V11I, C38A, K53A, T63A, C76A, C127A) (ligand)
chain: YFGKLKSKLSIIRNLNDQVLFIDQGNRPLFEDMTDSDARDNAPRTIFIISMYADSQPRGMAVAISVKCEKISTLSAENKIISFKEMNPPDNIKDTKSDIIFFQRSVPGHDNKMQFESSSYEGYFLAAEKERDLFKLILKKEDELGDRSIMFTVQNED
notes: also called C086
In the case of B3, in experiment [3], the “EC50, HEK-Blue IL18R reporter assay” value was determined as 0.067 pM. Also, in experiment [4], the Kd was 26.1 nM, the koff turned out to be 0.0567 s⁻¹ and the kon turned out to be 2.17e+06 M⁻¹ s⁻¹.

B4: Bifunctional cytokine Composition 3 (IL-18 SEQ ID NO: 30, linker 006, IL-2 SEQ ID NO: 300) (other)
chain 1: YFGKLKSKLSIIRNLNDQVLFIDQGNRPLFEDMTDSDARDNAPRTIFIISMYADSQPRGMAVAISVKCEKISTLSAENKIISFKEMNPPDNIKDTKSDIIFFQRSVPGHDNKMQFESSSYEGYFLAAEKERDLFKLILKKEDELGDRSIMFTVQNED
chain 2: APTSSSTKKTQLQLEHLLLDLQ[Nle]ILNGINNYKNPKLTR[Nle]L[hSer][Yn3]KF[Ygp][Nle]PKKATELKHLQCLEEELKPLEEVL[hSer]LAQSKNFHLRPRDLISNINVIVLELKGSETTF[hSer]CEYADETATIVEFLNRWITFSQSIISTLT
modifications: linker I:68-II:42 via linker 006 (SulfoDBCO-PEG24-Maleimide) (inferred); ends not checked
notes: as for B2
As to B4, the “EC50, HEK-Blue IL18R reporter assay” value in experiment [3] was determined as 0.1 pM. Further, the “EC50, HEK-Blue IL2Rβγ reporter assay” value in experiment [1] came to 0.007 nM. In experiment [2], this molecule gave a Kd of 151 nM, a koff of 0.0842 s⁻¹ and a kon of 559000 M⁻¹ s⁻¹. Also, in experiment [4], binding was characterised by a dissociation constant (Kd) of 25 nM, the koff was 0.0405 s⁻¹ and the kon is 1.62e+06 M⁻¹ s⁻¹.
